What was measured:
[1] = target: T1, PKA catalytic subunit (isoform α), mouse (mouse, UniProt P05132 2-351); test: crystal structure; apo RIIβ(1–416, R230K)2:C2 holoenzyme crystals soaked overnight with 5 mM CaCl2 and 1 mM ATP; 2.8 Å; conditions: both partners purified
[2] = target: the molecule itself; test: as above
[3] = target: T1, PKA catalytic subunit (isoform α), mouse; test: SPR; GST-RIIβ 102–416 (nonphospho or phospho) captured on an anti-GST antibody CM5 chip (80–120 RU), C-subunit 0.3–200 nM injected; buffer A only (chelators EDTA/EGTA, no nucleotide or metal); global fit, 1:1 Langmuir; conditions: both partners purified
[4] = target: T1, PKA catalytic subunit (isoform α), mouse; test: SPR; GST-RIIβ 102–416 (nonphospho or phospho) captured on an anti-GST antibody CM5 chip (80–120 RU), C-subunit 0.3–200 nM injected; buffer A with 1 mM ADP and 10 mM MgCl2; global fit, 1:1 Langmuir; conditions: both partners purified
[5] = target: T1, PKA catalytic subunit (isoform α), mouse; test: SPR; GST-RIIβ 102–416 (nonphospho, phospho or S112A) captured on an anti-GST antibody CM5 chip (80–120 RU), C-subunit injected; buffer A (20 mM MOPS, 150 mM NaCl, 100 μM EDTA, 100 μM EGTA, 0.01% P20) with 1 mM ATP and 10 mM MgCl2; global fit, 1:1 Langmuir; 25°C stated for the series of Fig 5; conditions: both partners purified
[6] = target: T1, PKA catalytic subunit (isoform α), mouse; test: SPR; GST-RIIβ 102–416 wild type and S112A captured on an anti-GST antibody CM5 chip (80 RU), C-subunit 30–0.12 nM injected; buffer A with 1 mM ATP and 10 mM CaCl2; 30 μL/min, 25°C; conditions: both partners purified
[7] = target: T1, PKA catalytic subunit (isoform α), mouse; test: SPR; GST-RIIβ 102–416 (nonphospho, phospho or S112A) captured on an anti-GST antibody CM5 chip (80–120 RU), C-subunit injected; buffer A (20 mM MOPS, 150 mM NaCl, 100 μM EDTA, 100 μM EGTA, 0.01% P20) with 1 mM ATP and 10 mM MgCl2; global fit, 1:1 Langmuir; 25°C stated for the series of Fig 5; conditions: both partners purified; remark: listed apart in the source

| binding result [1] | Kd [3] | koff [3] | kon [3] | Kd [4] | koff [4] | kon [4] | Kd [5] | koff [5] | kon [5] | koff [6] | binding result [7] | Binder | binding result [2] |
| --- | --- | --- | --- | --- | --- | --- | --- | --- | --- | --- | --- | --- | --- |
| binds | – | – | – | – | – | – | – | – | – | – | – | RIIβ(1–416, R230K), phosphorylated at Ser112 in the crystal (natural protein, phosphoserine at 112 (after the soak with CaATP), Two copies stand with two C-subunits in the RIIβ2:C2 holoenzyme; also called pRIIβ; RIIβ(R230K); source: E. coli BL21 (DE3), purified (cAMP resin, cGMP elution); holoenzyme crystals soaked with 5 mM CaCl2 and 1 mM ATP) not shown | binds |
| – | 0.39 nM | 0.00021 s⁻¹ | 530000 M⁻¹ s⁻¹ | 0.24 nM | 0.00015 s⁻¹ | 640000 M⁻¹ s⁻¹ | 0.14 nM | 0.0003 s⁻¹ | 2.1e+06 M⁻¹ s⁻¹ | ~0.0001 s⁻¹ | – | GST-RIIβ 102–416 (nonphosphorylated, wild type) (domain or fragment, rat, UniProt P12369 102-416, looked up, also called nonphospho form of RIIβ; source: E. coli BL21 (DE3), purified (cAMP resin, cGMP elution); cyclic nucleotide-free) PVINRFTRRASVCAEAYNPDEEEDDAESRIIHPKTDDQRNRLQEACKDILLFKNLDPEQMSQVLDAMFEKLVKEGEHVIDQGDDGDNFYVIDRGTFDIYVKCDGVGRCVGNYDNRGSFGELALMYNTPRAATITATSPGALWGLDRVTFRRIIVKNNAKKRKMYESFIESLPFLKSLEVSERLKVVDVIGTKVYNDGEQIIAQGDSADSFFIVESGEVRITMKRKGKSDIEENGAVEIARCLRGQYFGELALVTNKPRAASAHAIGTVKCLAMDVQAFERLLGPCMEIMKRNIATYEEQLVALFGTNMDIVEPTA | – |
| – | – | – | – | – | – | – | – | – | – | – | binds | GST-RIIβ 102–416 S112A (domain or fragment, rat, UniProt P12369 102-416, looked up, also called RIIβ(S112A); source: E. coli BL21 (DE3), purified (cAMP resin, cGMP elution); cyclic nucleotide-free) PVINRFTRRAAVCAEAYNPDEEEDDAESRIIHPKTDDQRNRLQEACKDILLFKNLDPEQMSQVLDAMFEKLVKEGEHVIDQGDDGDNFYVIDRGTFDIYVKCDGVGRCVGNYDNRGSFGELALMYNTPRAATITATSPGALWGLDRVTFRRIIVKNNAKKRKMYESFIESLPFLKSLEVSERLKVVDVIGTKVYNDGEQIIAQGDSADSFFIVESGEVRITMKRKGKSDIEENGAVEIARCLRGQYFGELALVTNKPRAASAHAIGTVKCLAMDVQAFERLLGPCMEIMKRNIATYEEQLVALFGTNMDIVEPTA | – |
| – | 0.31 nM | 0.00011 s⁻¹ | 340000 M⁻¹ s⁻¹ | 0.22 nM | 0.00012 s⁻¹ | 550000 M⁻¹ s⁻¹ | 7 nM | 0.00026 s⁻¹ | 38000 M⁻¹ s⁻¹ | – | – | phosphorylated GST-RIIβ 102–416 (pRIIβ) (domain or fragment, rat, UniProt P12369 102-416, looked up, phosphoserine at 112, source: E. coli BL21 (DE3), purified; phosphorylated in preformed holoenzyme with C-subunit and MgATP, C-subunit released on the chip with 500 nM cGMP) PVINRFTRRASVCAEAYNPDEEEDDAESRIIHPKTDDQRNRLQEACKDILLFKNLDPEQMSQVLDAMFEKLVKEGEHVIDQGDDGDNFYVIDRGTFDIYVKCDGVGRCVGNYDNRGSFGELALMYNTPRAATITATSPGALWGLDRVTFRRIIVKNNAKKRKMYESFIESLPFLKSLEVSERLKVVDVIGTKVYNDGEQIIAQGDSADSFFIVESGEVRITMKRKGKSDIEENGAVEIARCLRGQYFGELALVTNKPRAASAHAIGTVKCLAMDVQAFERLLGPCMEIMKRNIATYEEQLVALFGTNMDIVEPTA | – |

Reference: publication PMC4497662, “Single Turnover Autophosphorylation Cycle of the PKA RIIβ Holoenzyme” (PLoS Biology, 2015)
